Experimental data as given in US20190183976A1 (GPCR THERAPEUTICS, published 2019).
Like-named read-outs stand apart in the source and are kept apart here.

T1: CHRM1 (human, UniProt P11229 1-460)
T1 construct: whole, on cells; Untagged: adenovirus-expressed in U-2 OS or MDA-MB-231 cells, or endogenous in patient derived cells; also called Cholinergic Receptor Muscarinic 1
T1 sequence (looked up): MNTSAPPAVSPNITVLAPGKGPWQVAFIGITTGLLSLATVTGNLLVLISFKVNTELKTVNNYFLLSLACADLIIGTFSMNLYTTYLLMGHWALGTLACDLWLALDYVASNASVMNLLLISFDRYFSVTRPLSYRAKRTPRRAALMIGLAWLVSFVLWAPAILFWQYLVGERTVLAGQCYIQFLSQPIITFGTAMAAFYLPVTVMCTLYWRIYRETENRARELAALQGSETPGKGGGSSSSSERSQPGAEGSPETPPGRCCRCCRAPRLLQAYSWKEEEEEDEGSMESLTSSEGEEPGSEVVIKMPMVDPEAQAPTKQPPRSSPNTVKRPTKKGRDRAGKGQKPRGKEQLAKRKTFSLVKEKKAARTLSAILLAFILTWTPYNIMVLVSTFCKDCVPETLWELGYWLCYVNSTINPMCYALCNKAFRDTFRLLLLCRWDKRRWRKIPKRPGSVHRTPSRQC


Columns and labels:
[1] = biological target: T2, CXCR4-VN (human, UniProt P61073 1-352); assay: BiFC, U-2 OS cells, CXCR4-VN & GPCRx-VC; score=(positive cells/total cells)x100
T2 construct: whole, on cells; Adenovirus-expressed in U-2 OS cells; also called CXCR4 fused with N-terminal fragment of Venus; not shown: VNm10, N-terminal fragment of Venus (VN154 variant with L46F and L64F)
Description: (§1) Images of about 200 cells from each well were analyzed with Multi-target analysis software in IN Cell Developer ToolBox (GE Healthcare, Waukesha, Wis.). Cell boundary was marked based on Hoechst signal, and fluorescence intensity per cell was measured. Cells with fluorescence intensities higher than background level were considered as BiFC positive cells. […] Positive cells were determined, and positive cell count ratio (“BiFC score”) was calculated as (positive cells/total cells)×100 (see Table 4 below).

[2] = biological target: T2, CXCR4-VN; assay: as above; remark: listed apart in the source
Description: as §1

[3] = biological target: T1, CHRM1; assay: proximity ligation assay, GBM patient derived cells (endogenous receptors)
Description: (§2) To perform PLA with PDC samples, the patient derived cells were plated and fixed with 4% PFA on sixteen-well tissue culture slides. […] Slides were then washed and incubated (1 h at 37° C.) with secondary anti-rabbit and anti-mouse antibodies conjugated with plus and minus Duolink II PLA probes. Slides were washed again and then incubated with ligation-ligase solution (30 min at 37° C.) followed by incubation with amplification-polymerase solution (2 h at 37° C.).
as §2, with “PDCs” for “To perform PLA with PDC samples, the patient derived cells”, “seeded in 96-chamber slide at 100000 ea /well in 100 ul” for “plated and fixed with 4% PFA on sixteen-well tissue”, “media.” for “slides.”

[4] = biological target: T3, ADRB2 (human, UniProt P07550 1-413); assay: as above
T3 construct: whole, on cells; Untagged: adenovirus-expressed in U-2 OS or MDA-MB-231 cells, or endogenous in patient derived cells and PDX tissue; also called Adrenoceptor Beta 2; Ad-ADRB2
Description: as §2
as §2, with “PDCs” for “To perform PLA with PDC samples, the patient derived cells”, “seeded in 96-chamber slide at 100000 ea /well in 100 ul” for “plated and fixed with 4% PFA on sixteen-well tissue”, “media.” for “slides.”

Binder	BiFC score [1]	also measured
ADORA3-VC (receptor, human, UniProt P0DMS8 1-318, looked up, whole, on cells; Adenovirus-expressed in U-2 OS cells; not shown: VC155, C-terminal fragment of Venus) MPNNSTALSLANVTYITMEIFIGLCAIVGNVLVICVVKLNPSLQTTTFYFIVSLALADIAVGVLVMPLAIVVSLGITIHFYSCLFMTCLLLIFTHASIMSLLAIAVDRYLRVKLTVRYKRVTTHRRIWLALGLCWLVSFLVGLTPMFGWNMKLTSEYHRNVTFLSCQFVSVMRMDYMVYFSFLTWIFIPLVVMCAIYLDIFYIIRNKLSLNLSNSKETGAFYGREFKTAKSLFLVLFLFALSWLPLSIINCIIYFNGEVPQLVLYMGILLSHANSMMNPIVYAYKIKKFKETYLLILKACVVCHPSDSLDTSIEKNSE	43	–
CALCR-VC (receptor, human, UniProt P30988 25-474, looked up, whole, on cells; Adenovirus-expressed in U-2 OS cells; not shown: VC155, C-terminal fragment of Venus) AFSNQTYPTIEPKPFLYVVGRKKMMDAQYKCYDRMQQLPAYQGEGPYCNRTWDGWLCWDDTPAGVLSYQFCPDYFPDFDPSEKVTKYCDEKGVWFKHPENNRTWSNYTMCNAFTPEKLKNAYVLYYLAIVGHSLSIFTLVISLGIFVFFRSLGCQRVTLHKNMFLTYILNSMIIIIHLVEVVPNGELVRRDPVSCKILHFFHQYMMACNYFWMLCEGIYLHTLIVVAVFTEKQRLRWYYLLGWGFPLVPTTIHAITRAVYFNDNCWLSVETHLLYIIHGPVMAALVVNFFFLLNIVRVLVTKMRETHEAESHMYLKAVKATMILVPLLGIQFVVFPWRPSNKMLGKIYDYVMHSLIHFQGFFVATIYCFCNNEVQTTVKRQWAQFKIQWNQRWGRRPSNRSARAAAAAAEAGDIPIYICHQELRNEPANNQGEESAEIIPLNIIEQESSA	53	–
EDNRB-VC (receptor, human, UniProt P24530 27-442, looked up, whole, on cells; Adenovirus-expressed in U-2 OS cells; not shown: VC155, C-terminal fragment of Venus) EERGFPPDRATPLLQTAEIMTPPTKTLWPKGSNASLARSLAPAEVPKGDRTAGSPPRTISPPPCQGPIEIKETFKYINTVVSCLVFVLGIIGNSTLLRIIYKNKCMRNGPNILIASLALGDLLHIVIDIPINVYKLLAEDWPFGAEMCKLVPFIQKASVGITVLSLCALSIDRYRAVASWSRIKGIGVPKWTAVEIVLIWVVSVVLAVPEAIGFDIITMDYKGSYLRICLLHPVQKTAFMQFYKTAKDWWLFSFYFCLPLAITAFFYTLMTCEMLRKKSGMQIALNDHLKQRREVAKTVFCLVLVFALCWLPLHLSRILKLTLYNQNDPNRCELLSFLLVLDYIGINMASLNSCINPIALYLVSKRFKNCFKSCLCCWCQSFEEKQSLEEKQSCLKFKANDHGYDNFRSSNKYSSS	41	–
TACR3-VC (receptor, human, UniProt P29371 1-465, looked up, whole, on cells; Adenovirus-expressed in U-2 OS cells; not shown: VC155, C-terminal fragment of Venus) MATLPAAETWIDGGGGVGADAVNLTASLAAGAATGAVETGWLQLLDQAGNLSSSPSALGLPVASPAPSQPWANLTNQFVQPSWRIALWSLAYGVVVAVAVLGNLIVIWIILAHKRMRTVTNYFLVNLAFSDASMAAFNTLVNFIYALHSEWYFGANYCRFQNFFPITAVFASIYSMTAIAVDRYMAIIDPLKPRLSATATKIVIGSIWILAFLLAFPQCLYSKTKVMPGRTLCFVQWPEGPKQHFTYHIIVIILVYCFPLLIMGITYTIVGITLWGGEIPGDTCDKYHEQLKAKRKVVKMMIIVVMTFAICWLPYHIYFILTAIYQQLNRWKYIQQVYLASFWLAMSSTMYNPIIYCCLNKRFRAGFKRAFRWCPFIKVSSYDELELKTTRFHPNRQSSMYTVTRMESMTVVFDPNDADTTRSSRKKRATPRDPSFNGCSRRNSKSASATSSFISSPYTSVDEYS	33	–
GALR1-VC (receptor, human, UniProt P47211 1-349, looked up, whole, on cells; Adenovirus-expressed in U-2 OS cells; not shown: VC155, C-terminal fragment of Venus) MELAVGNLSEGNASWPEPPAPEPGPLFGIGVENFVTLVVFGLIFALGVLGNSLVITVLARSKPGKPRSTTNLFILNLSIADLAYLLFCIPFQATVYALPTWVLGAFICKFIHYFFTVSMLVSIFTLAAMSVDRYVAIVHSRRSSSLRVSRNALLGVGCIWALSIAMASPVAYHQGLFHPRASNQTFCWEQWPDPRHKKAYVVCTFVFGYLLPLLLICFCYAKVLNHLHKKLKNMSKKSEASKKKTAQTVLVVVVVFGISWLPHHIIHLWAEFGVFPLTPASFLFRITAHCLAYSNSSVNPIIYAFLSENFRKAYKQVFKCHIRKDSHLSDTKESKSRIDTPPSTNCTHV	60	BiFC score [2]: 60
C5AR1-VC (receptor, human, UniProt P21730 1-350, looked up, whole, on cells; Adenovirus-expressed in U-2 OS cells; not shown: VC155, C-terminal fragment of Venus) MDSFNYTTPDYGHYDDKDTLDLNTPVDKTSNTLRVPDILALVIFAVVFLVGVLGNALVVWVTAFEAKRTINAIWFLNLAVADFLSCLALPILFTSIVQHHHWPFGGAACSILPSLILLNMYASILLLATISADRFLLVFKPIWCQNFRGAGLAWIACAVAWGLALLLTIPSFLYRVVREEYFPPKVLCGVDYSHDKRRERAVAIVRLVLGFLWPLLTLTICYTFILLRTWSRRATRSTKTLKVVVAVVASFFIFWLPYQVTGIMMSFLEPSSPTFLLLKKLDSLCVSFAYINCCINPIIYVVAGQGFQGRLRKSLPSLLRNVLTEESVVRESKSFTRSTVDTMAQKTQAV	42	–
ADCYAP1R1-VC (receptor, human, UniProt P41586 21-468, looked up, whole, on cells; Adenovirus-expressed in U-2 OS cells; not shown: VC155, C-terminal fragment of Venus) MHSDCIFKKEQAMCLEKIQRANELMGFNDSSPGCPGMWDNITCWKPAHVGEMVLVSCPELFRIFNPDQVWETETIGESDFGDSNSLDLSDMGVVSRNCTEDGWSEPFPHYFDACGFDEYESETGDQDYYYLSVKALYTVGYSTSLVTLTTAMVILCRFRKLHCTRNFIHMNLFVSFMLRAISVFIKDWILYAEQDSNHCFISTVECKAVMVFFHYCVVSNYFWLFIEGLYLFTLLVETFFPERRYFYWYTIIGWGTPTVCVTVWATLRLYFDDTGCWDMNDSTALWWVIKGPVVGSIMVNFVLFIGIIVILVQKLQSPDMGGNESSIYLRLARSTLLLIPLFGIHYTVFAFSPENVSKRERLVFELGLGSFQGFVVAVLYCFLNGEVQAEIKRKWRSWKVNRYFAVDFKHRHPSLASSGVNGGTQLSILSKSSSQIRMSGLPADNLAT	23	–
CXCR4 (receptor, human, UniProt P61073 1-352, looked up, whole, on cells; also called C-X-C Motif Chemokine Receptor 4; CXC receptor 4) MEGISIYTSDNYTEEMGSGDYDSMKEPCFREENANFNKIFLPTIYSIIFLTGIVGNGLVILVMGYQKKLRSMTDKYRLHLSVADLLFVITLPFWAVDAVANWYFGNFLCKAVHVIYTVNLYSSVLILAFISLDRYLAIVHATNSQRPRKLLAEKVVYVGVWIPALLLTIPDFIFANVSEADDRYICDRFYPNDLWVVVFQFQHIMVGLILPGIVILSCYCIIISKLSHSKGHQKRKALKTTVILILAFFACWLPYYIGISIDSFILLEIIKQGCEFENTVHKWISITEALAFFHCCLNPILYAFLGAKFKTSAQHALTSVSRGSSLKILSKGKRGGHSSVSTESESSSFHSS	–	binding result [3]: binds; binding result [4]: binds
APLNR-VC (receptor, human, UniProt P35414 1-380, looked up, whole, on cells; Adenovirus-expressed in U-2 OS cells; not shown: VC155, C-terminal fragment of Venus) MEEGGDFDNYYGADNQSECEYTDWKSSGALIPAIYMLVFLLGTTGNGLVLWTVFRSSREKRRSADIFIASLAVADLTFVVTLPLWATYTYRDYDWPFGTFFCKLSSYLIFVNMYASVFCLTGLSFDRYLAIVRPVANARLRLRVSGAVATAVLWVLAALLAMPVMVLRTTGDLENTTKVQCYMDYSMVATVSSEWAWEVGLGVSSTTVGFVVPFTIMLTCYFFIAQTIAGHFRKERIEGLRKRRRLLSIIVVLVVTFALCWMPYHLVKTLYMLGSLLHWPCDFDLFLMNIFPYCTCISYVNSCLNPFLYAFFDPRFRQACTSMLCCGQSRCAGTSHSSSGEKSASYSSGHSQGPGPNMGKGGEQMHEKSIPYSQETLVVD	63	BiFC score [2]: 63
CHRM1-VC (receptor, human, UniProt P11229 1-460, looked up, whole, on cells; Adenovirus-expressed in U-2 OS cells; not shown: VC155, C-terminal fragment of Venus) MNTSAPPAVSPNITVLAPGKGPWQVAFIGITTGLLSLATVTGNLLVLISFKVNTELKTVNNYFLLSLACADLIIGTFSMNLYTTYLLMGHWALGTLACDLWLALDYVASNASVMNLLLISFDRYFSVTRPLSYRAKRTPRRAALMIGLAWLVSFVLWAPAILFWQYLVGERTVLAGQCYIQFLSQPIITFGTAMAAFYLPVTVMCTLYWRIYRETENRARELAALQGSETPGKGGGSSSSSERSQPGAEGSPETPPGRCCRCCRAPRLLQAYSWKEEEEEDEGSMESLTSSEGEEPGSEVVIKMPMVDPEAQAPTKQPPRSSPNTVKRPTKKGRDRAGKGQKPRGKEQLAKRKTFSLVKEKKAARTLSAILLAFILTWTPYNIMVLVSTFCKDCVPETLWELGYWLCYVNSTINPMCYALCNKAFRDTFRLLLLCRWDKRRWRKIPKRPGSVHRTPSRQC	24	–
